We go through 1 molecule from US20210063414A1, “METHODS FOR PREVENTING AND/OR TREATING BONE LOSS CONDITIONS BY MODULATING IRISIN” (Dana-Farber Cancer Institute, Inc., priority 2018, published 2021).

Assay [1] has as its system primary inguinal fat cells. In words: Ucp1 mRNA in primary inguinal fat cells. The assay is classed as cell-based, mice. The following applies: irisin during 6 days differentiation. The method, then:
FIG. 18A-FIG. 18B show mRNA and protein levels of indicated genes. 1 mg/kg irisin was injected to 8-week old mice every other day for 6 days. mRNA levels of indicated genes in inguinal fat were analyzed by qRT-PCR. Cyclophilin was used for housekeeping gene (FIG. 18A). Inguinal fats were also lysed to detect the indicated protein level using immunoblot analysis (FIG. 18B). FIGS. 18C and 18D show mRNA and protein levels of indicated genes. Mice were treated and analyzed as (A-B) with addition of coinjection of […] control RGD peptide or cyclo RGDyK (cRGDyK). mRNA levels of indicated genes in inguinal fat were analyzed by qRT-PCR. Cyclophilin was used for house-keeping gene (FIG. 18C). Inguinal fats were also lysed to detect the indicated protein level using immunoblot analysis (FIG. 18D). […] Ucp1 mRNA level was analyzed by qRT-PCR. […]
Inguinal fat tissue from 6 weeks old mice was dissected and washed with PBS, minced and digested for 1 hour at 37° C. in PBS containing 10 mM CaCl2, 2.4 U/ml dispase II (Roche) and 10 mg/ml collagenase D (Roche). […] After that, cells were maintained in 1 μM rosiglitazone in the presence of 0, 0.5, 5 or 50 ng/ml recombinant […] his-tag irisin protein for 4 days with medium change every other day. mRNA levels were analyzed as described in gene expression analysis. […]

Another assay concerns the target integrin αV/β5 (Homo sapiens, UniProt P06756+P18084). As to the kind of experiment: FAK phosphorylation in HEK293T cells with forced expression of integrin αV/β5. The assay is classed as cell-based. More on the design: expressed in transfected cells; host or cells: HEK293T. The following applies: HEK293T, forced expression of integrin αV/β5, irisin 5 minutes. On the procedure: 100 nM irisin was incubated with 5 nM indicated his-tag integrins followed by immunoprecipitation using Ni-NTA agaroses. Precipitated integrins and co-precipitated irisin were analyzed by immunoblot analysis. […] HEK293T cells were seeded and incubated until 50% cell density. The cells were transfected with 0.1 μg plasmids of indicated integrins. After 48 hours, the cells were incubated with Freestyle293 medium for 3 hours and were treated with indicated concentration of irisin for 5 minutes. Cells were lysed to detect the indicated protein level using immunoblot analysis. […] Sclerostin mRNA level was analyzed by qRT-PCR. […]
100 nM irisin was incubated with 5 nM indicated his-tag integrins followed by immunoprecipitation using Ni-NTA agaroses. Precipitated integrins and co-precipitated irisin were analyzed by immunoblot analysis. […] Cells were treated and analyzed as FIG. 14B except using plasmids encoding integrin α5/β1 or integrin α11/β1 (FIG. 15C) integrin αV/β1(FIG. 15D).
MLO-Y4 cells were treated and analyzed as described in FIG. 5A with addition of pretreatment of control RGD peptide, cyclo RGDyK (cRGDyK), or SB273005. […] HEK293 cells were treated and analyzed as described in FIG. 14B except the treatment of different dose of cyclo RGDyK. […] 8 weeks old male mice were treated and analyzed as described in FIG. 5D except the additional group with co-injection of 1 mg/kg SB273005. […]

integrin αV/β5, sequence (P06756 31-889 limits assumed): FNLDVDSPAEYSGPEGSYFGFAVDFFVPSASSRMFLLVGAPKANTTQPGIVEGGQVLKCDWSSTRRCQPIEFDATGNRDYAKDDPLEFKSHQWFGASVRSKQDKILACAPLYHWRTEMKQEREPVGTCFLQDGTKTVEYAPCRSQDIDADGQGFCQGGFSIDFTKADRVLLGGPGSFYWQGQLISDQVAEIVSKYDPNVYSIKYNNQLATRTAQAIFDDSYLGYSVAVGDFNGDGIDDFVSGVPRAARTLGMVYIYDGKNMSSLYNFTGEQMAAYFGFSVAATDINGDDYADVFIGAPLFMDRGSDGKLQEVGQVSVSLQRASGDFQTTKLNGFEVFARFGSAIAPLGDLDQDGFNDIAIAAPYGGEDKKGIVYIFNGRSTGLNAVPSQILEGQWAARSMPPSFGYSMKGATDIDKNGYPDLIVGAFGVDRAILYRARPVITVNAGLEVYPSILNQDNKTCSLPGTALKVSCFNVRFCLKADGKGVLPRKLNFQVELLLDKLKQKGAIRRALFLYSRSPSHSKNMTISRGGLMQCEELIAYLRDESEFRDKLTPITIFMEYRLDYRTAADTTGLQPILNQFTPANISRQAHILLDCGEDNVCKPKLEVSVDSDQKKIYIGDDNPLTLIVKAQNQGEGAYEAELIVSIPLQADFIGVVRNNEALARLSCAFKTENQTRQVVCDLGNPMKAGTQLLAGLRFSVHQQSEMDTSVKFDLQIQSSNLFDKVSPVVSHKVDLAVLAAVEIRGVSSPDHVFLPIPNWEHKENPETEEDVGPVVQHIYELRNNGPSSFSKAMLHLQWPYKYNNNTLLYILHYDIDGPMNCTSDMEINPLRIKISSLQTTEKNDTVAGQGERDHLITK
integrin αV/β5, sequence (P06756 891-1048 partner limits assumed): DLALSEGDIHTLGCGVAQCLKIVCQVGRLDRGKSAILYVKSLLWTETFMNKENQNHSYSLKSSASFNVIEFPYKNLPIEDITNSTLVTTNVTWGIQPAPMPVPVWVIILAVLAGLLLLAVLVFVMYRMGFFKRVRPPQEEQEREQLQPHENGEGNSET
integrin αV/β5, sequence (P18084 24-799): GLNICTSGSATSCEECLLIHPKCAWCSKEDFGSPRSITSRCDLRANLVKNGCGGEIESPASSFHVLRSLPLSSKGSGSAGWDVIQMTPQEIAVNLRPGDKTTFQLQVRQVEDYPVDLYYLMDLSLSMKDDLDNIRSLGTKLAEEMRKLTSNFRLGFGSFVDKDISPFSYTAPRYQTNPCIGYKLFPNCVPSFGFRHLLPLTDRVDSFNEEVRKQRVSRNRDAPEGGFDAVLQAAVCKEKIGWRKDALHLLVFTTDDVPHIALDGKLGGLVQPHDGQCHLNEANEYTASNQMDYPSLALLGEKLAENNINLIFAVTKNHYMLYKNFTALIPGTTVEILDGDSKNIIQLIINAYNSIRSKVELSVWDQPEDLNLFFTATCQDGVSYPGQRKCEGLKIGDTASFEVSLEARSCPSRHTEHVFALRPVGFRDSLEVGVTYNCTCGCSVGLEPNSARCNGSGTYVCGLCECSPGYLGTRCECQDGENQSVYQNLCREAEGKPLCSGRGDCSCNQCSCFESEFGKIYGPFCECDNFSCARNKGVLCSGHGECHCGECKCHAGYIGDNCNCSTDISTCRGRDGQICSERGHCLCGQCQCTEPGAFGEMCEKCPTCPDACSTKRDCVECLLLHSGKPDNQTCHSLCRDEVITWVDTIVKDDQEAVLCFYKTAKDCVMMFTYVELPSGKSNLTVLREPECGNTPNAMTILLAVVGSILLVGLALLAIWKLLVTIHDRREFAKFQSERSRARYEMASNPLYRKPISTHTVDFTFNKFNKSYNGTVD

B1: irisin: secreted cleaved form of FNDC5; recombinant human/mouse irisin with C-terminal his tag produced in HEK293 cells (protein)
chain: DSPSAPVNVTVRHLKANSAVVSWDVLEDEVVIGFAISQQKKDVRMLRFIQEVNTTTRSCALWDLEEDTEYIVHVQAISIQGQSPASEPVLFKTPREAEKMASKNKDEVTMKE
modifications: left off: small tags and cut ends
notes: secreted cleaved form of FNDC5; recombinant human/mouse irisin with C-terminal his tag produced in HEK293 cells
Consider B1, for which the “gene expression of Ucp1” value in assay [1] is listed as “increased the gene expression of Ucp1”. In the assay with integrin αV/β5, the “phosphorylation of FAK upon irisin treatment” value is recorded as “enhanced level of phosphorylation of FAK”.
